In this experiment the target is T1, human α2-polyHis-tag (human, UniProt Q96T91 24-129).
T1 construct: also called human α2 polypeptide; alpha-2; not shown: polyHis tag
T1 sequence (looked up): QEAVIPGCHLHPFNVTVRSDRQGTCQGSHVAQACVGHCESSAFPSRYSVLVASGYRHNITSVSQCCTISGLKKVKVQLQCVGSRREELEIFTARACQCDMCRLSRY
Briefly: heterodimerization assay: co-transfection, immunoprecipitation, Western blot. As to the method:
A human α2-polyHis-tag mammalian expression vector and a human β10-FLAG-tag mammalian expression vector were co-transfected into 293 cells and serum free conditioned media was harvested after 72 hours. Immunoprecipitation was done using anti-FLAG M2-Agarose affinity beads (Cat# A1205, Sigma, St. Louis, Mo.). A Western blot of this immunoprecipitate was probed with affinity purified anti-α2 rabbit polyclonal antibodies (example 4) that had been conjugated to Horse Radish Peroxidase (Linx HRP Rapid Protein Conjugation Kit, cat# K8050-01, Invitrogen Corp., Carlsbad, Calif.). A strong α2-polyHis-tag band was observed using the ECL Western Blot detection kit (cat#RPN 2106, Amersham Pharmacia Biotech, Piscataway, N.J.). […] No α2-polyHis-tag band was observed if either of these 2 components was left out of the experiment or if plain agarose beads (i.e. without anti-FLAG antibodies) were used for the immunoprecipitation step.
(Immunoblotting shows a protein as a band on a membrane.)

B1: human β10-FLAG-tag (ligand)
chain: ASSGNLRTFVGCAVREFTFLAKKPGCRGLRITTDACWGRCETWEKPILEPPYIEAHHRVCTYNETKQVTVKLPNCAPGVDPFYTYPVAIRCDCGACSTATTECETI
notes: Secreted from transfected 293 cells; the cleavage site is predicted, not determined; also called human β10 polypeptide; beta-10; not shown: FLAG tag
As for B1, the binding result is “binds”.
